Data on five molecules can be found in US20160310572A1, “COMPOSITIONS AND METHODS TO DIAGNOSE DIABETES AND/OR TO TREAT NEGATIVE EFFECTS OF DIABETES” (WAYNE STATE UNIVERSITY, priority 2013, published 2016).

“Also recorded” adds a separate entry of the source.

Assay [1] is described as follows: Example 2: promotion of re-epithelialization. The assay is classed as in vivo. Particulars: end point: establishment of a biological barrier or Superficial Punctate Keratitis. The source says:
(§1) Compositions can also be administered in effective amounts to promote re-epithelialization, reduce the occurrence and/or severity of ulcers and preserve nerve function (appropriate signal potentiation) and/or integrity (physical state of the nerve itself). Objective measures for re-epithelialization include, without limitation, slit lamp microscopy with fluorescence staining. Objective measures for reduction and/or severity of ulcers include, without limitation, slit lamp microscopy for surface (ir)regularity. Objective measures for preservation of nerve function include corneal sensitivity measures. Objective measures for preservation of nerve integrity include in vitro confocal microscopy to determine the nerve fiber health (length, diameters and branches.)
(§2) A number of experiments are conducted to further define the role of up-regulation of TGFβ1, TGFβ2, TGFβ3, Serpine 1, fibronectin, lumican, epidermal growth factor ligands, activin and Nodal as well as the down-regulation of sEH/Ephx2 in the promotion of wound healing, promotion of re-epithelialization, reduction of the occurrence and/or severity of ulcers, preservation of nerve function and/or integrity, promotion of eye health and maintenance of vision. In the experiments, each experiment having relevant control conditions, each of the listed compounds is administered as part of a therapeutic composition (including as a direct therapeutic and/or as part of a genetic therapy as described herein).

The nature of assay [2]: Example 2: occurrence and/or severity of ulcers. The assay is classed as in vivo. The following applies: end point: slit lamp microscopy for surface (ir)regularity.
Excerpt: as §1, §2

For the next assay, the system named is GK rat corneas. The experiment in a line: Epithelial wound closure in GK rat corneas after subconjunctival recombinant TGFβ3. Particulars: GK rats, 40 ng in 20 μl subconjunctival 4 hours prior to debridement, 5-mm wound, 42 h, vs PBS. The assay is classed as in vivo. As to the method: (§3) FIGS. 6A-6C. Effects of TGFβ3 on epithelial wound closure in GK rat corneas. (FIG. 6A) A total of 40 ng recombinant TGFβ3, with PBS as the control, was injected into subconjunctival space at two sites (10 μl each) of GK rats 4 hours prior to wounding. Corneal epithelial wound of 5-mm diameter was made and allowed to heal for 42 h and then fluorescence stained, and photographed. (FIG. 6B) Changes in the mean of the remaining wound areas in pixels were calculated by Adobe Photoshop software with p value listed, n=5. (FIG. 6C). CECs collected during wounding (Con) and 42 hpw in PBS and TGFβ3 treated corneas were extracted and subjected to Western blotting with listed antibodies; two samples out of 5 from post wounding corneas were shown with actin as the internal control. The anti-TGFβ1-3 antibodies recognized both latent (44, 25, 47 kDa, respectively) and active (15, 12, 15 kDa, respectively) forms, giving two bands in Western blotting. These figures are representatives of 5 corneas per condition from 2 independent experiments; ** p<0.01.
Corneal Epithelial Debridement Wound. […]
Exogenous TGFβ3 accelerates delayed epithelial wound closure in DM corneas. Whether exogenously-added TGFβ3 in DM corneas accelerates delayed epithelial wound closure in GK and STZ B6 mice was assessed next. […]

Assay [3] relates to Smad2/3, TGFβ1, TGFβ2, TGFβ3 in WH CECs. In words: Western blotting of CECs of TGFβ3 treated GK rat corneas. The assay is classed as in vivo. The following applies: GK rats. The method, then: as §3
Determination of Protein Expression and Phosphorylation by Western Blot Analysis. The epithelial cells removed during corneal debridement (the control) and post-wound, but prior to wound closure, were collected from NL and DM rat corneas and lysed with radioimmunoprecipitation assay (RIPA) buffer. Protein concentrations were determined using Micro BCA kits. Levels of various proteins or their phosphorylation were determined using specific antibodies. For each condition, two samples were shown with β-actin levels as the internal controls.
Exogenous TGFβ3 accelerates delayed epithelial wound closure in DM corneas. Whether exogenously-added TGFβ3 in DM corneas accelerates delayed epithelial wound closure in GK and STZ B6 mice was assessed next. […] To assess if exogenously added TGFβ3 affects the isoform expression, antibodies against TGFβ1-3 were used for Western blotting. […] While some elevated active TGFβ3 molecules could be from exogenously added TGFβ3 (15 kDa), the latent form (47 kDa) can only be from endogenous sources, indicating an auto-regulation of TGFβ3 expression in rat corneas.
On the technique in general: In western blotting, separated proteins are transferred to a membrane and probed.

Another assay concerns STZ B6 mouse corneas. The experiment in a line: Epithelial wound closure in STZ B6 mouse corneas after subconjunctival recombinant TGFβ3. The following applies: STZ B6 mice, 14 ng subconjunctival 4 hours prior to wounding, 2 mm wound, 16 and 24 hpw, vs PBS. The assay is classed as in vivo. As to the method: (§4) FIGS. 7A-7C. Effects of TGFβ3 on epithelial wound closure in B6 and STZ B6 mouse corneas. […] A 2 mm epithelial wound was made and allowed to heal for 16 h in B6 mice and 24 h in STZ B6 mice, and then fluorescence stained, and photographed. 1) NL cornea injected with PBS, 2) NL corneal injected with TGFβ3, 3) DM (STZ) cornea injected with PBS, 4) DM corneal injected with TGFβ3. (FIG. 7B) Changes in the mean of the remaining wound areas in pixels were calculated by Adobe Photoshop software with p value listed, n=5. (FIG. 7C). CECs collected during wounding (first 2 lanes) and 16 hpw (1, 2) or 24 hpw (3, 4) in PBS (1, 3) and TGFβ3 (2, 4) treated corneas were extracted and subjected to realtime-PCR analysis for Serpine 1 expression, N=3, **p<0.01.
Corneal Epithelial Debridement Wound. Anesthetized rats and mice were first demarcated with a trephine in the central cornea (5-mm circular wound for rats and 2 mm for mice) and CECs were removed with a blunt scalpel blade under a dissecting microscope (4; 6; 7). The blade with scraped CECs was immediately immersed into liquid nitrogen and the visible ice was collected into a test tube, placed on dry ice and stored at −80° C. The sample was marked as unwounded (UW). Bacitracin ophthalmic ointment was applied to the cornea after surgery to prevent infection. […]

In a further assay the test system is Serpine 1. The experiment in a line: Realtime-PCR for Serpine 1 expression in CECs of TGFβ3 treated mouse corneas. The following applies: NL and DM mice, 16 or 24 hpw. The assay is classed as in vivo. The method, then:
as §4
RNA Extraction and Real-time PCR. For RNA isolation, CECs were scraped off of corneas, with 2 corneas pooled into 1 tube as one sample. RNA was extracted from the collected CECs using RNeasy Mini Kit (QIAGEN). cDNA was generated with an oligo(dT) primer (Invitrogen) followed by analysis using real-time PCR with the Power SYBR Green PCR Master Mix (AB Applied Biosystems), based on the expression of β-actin.

Assay [4] deals with corneas of type 1 DM rats and mice and type 2 DM rats. The experiment in a line: Epithelial wound healing in DM corneas of three rodent models (summary statements). The assay is classed as in vivo. The following applies: exogenous TGFβ3. From the text: The described genome-wide cDNA microarrays were used to compare the gene expression profiles of WH versus UW and DM versus NL CECs. […] Without being bound to a single theory, the effects of TGFβs on epithelial wound closure are related to its ability to activate Smad-dependent and -independent pathways, to modulate its own expression, and to mediate target gene expression.
The altered expression of TGFβ3 was also confirmed in cultured human corneas post wound healing, indicating the relevance of the study. […] While the mechanisms underlying hyperglycemia-suppressed wound-induced TGFβ3 expression is unclear, early inhibitory effects of hyperglycemia on TGFβ3 expression, which differs from that of TGFβ1 (42), may exacerbate the suppression of TGFβ3 up-regulation in response to wounding.

For the next assay, the system named is adult skin wounds. The following applies: failure due to increased angiogenesis in post-surgery skin; cited from earlier work.

On to “TGβ1: TGFβ isoform 1 administered as part of a therapeutic composition”, for which the “Treatment Outcome: Promotes re-epithelialization” value in assay [1] is listed as “Promotes”. Further, in assay [2], the “Treatment Outcome: Reduces occurrence and/or severity of ulcers” value is listed as “Reduces occurrence”.

Take Activin: the “Treatment Outcome: Promotes re-epithelialization” value in assay [1] is on record as “Promotes”. In assay [2], the “Treatment Outcome: Reduces occurrence and/or severity of ulcers” value is listed as “Reduces occurrence”.

B1: TGβ2: TGFβ isoform 2 administered as part of a therapeutic composition (protein)
chain: ALDAAYCFRNVQDNCCLRPLYIDFKRDLGWKWIHEPKGYNANFCAGACPYLWSSDTQHTKVLSLYNTINPEASASPCCVSQDLEPLTILYYIGNTPKIEQLSNMIVKSCKCS
As for B1, the “Treatment Outcome: Promotes re-epithelialization” value in assay [1] is listed as “Promotes”. The “Treatment Outcome: Reduces occurrence and/or severity of ulcers” value in assay [2] is “Reduces occurrence”.

B2: TGFβ3: recombinant Transforming Growth Factor beta 3 isoform, injected subconjunctivally (protein)
chain: ALDTNYCFRNLEENCCVRPLYIDFRQDLGWKWVHEPKGYYANFCSGPCPYLRSSDTTHSTVLGLYNTLNPEASASPCCVPQDLEPLTILYYVGRTPKVEQLSNMVVKSCKCS
On to B2, for which the “rate of wound closure” value with GK rat corneas is recorded as “substantially increasing”. Further, the “Smad2/3 phosphorylation in WH CECs” value in assay [3] (42 hpw) is “enhancing”. The “TGFβ3 expression (latent form, endogenous)” value in assay [3] (WH CECs) is “increased”. Besides, the TGFβ1 expression result in assay [3] (WH DM CECs) is reported as “no effects”. In assay [3] (all samples), the “levels of TGFβ2” value is “low and unchanged”. The “rate of epithelial closure” value in the assay with STZ B6 mouse corneas is recorded as “significantly increased”. Moreover, the “Serpine 1 mRNA levels” value in the assay on Serpine 1 is “correlated to the levels of TGFβ3 activity”. Also, the “epithelial wound healing in DM corneas” value in assay [4] is listed as “promotes epithelial wound healing; also recorded: partially restores the healing rate”. The “Treatment Outcome: Promotes re-epithelialization” value in assay [1] is given as “Promotes”. For the same molecule, the “Treatment Outcome: Reduces occurrence and/or severity of ulcers” value in assay [2] is “Reduces occurrence”. Moreover, the “outcome of phase 3 clinical trials as anti-scarring agent” value with adult skin wounds is “considered a failure”.

B3: Nodal: composition that up-regulates SMAD-signaling (protein, UniProt Q96S42 238-347, looked up)
Nodal homolog: HHLPDRSQLCRKVKFQVDFNLIGWGSWIIYPKQYNAYRCEGECPNPVGEEFHPTNHAYIQSLLKRYQPHRVPSTCCAPVKTKPLSMLYVDNGRVLLDHHKDMIVEECGCL
In the case of B3, in assay [1], the “Treatment Outcome: Promotes re-epithelialization” value was “Promotes”. Besides, the “Treatment Outcome: Reduces occurrence and/or severity of ulcers” value in assay [2] was “Reduces occurrence”.
